Paper PMC8822698, “Structural and biological insights into Klebsiella pneumoniae surface polysaccharide degradation by a bacteriophage K1 lyase: implications for clinical use” (Journal of Biomedical Science, 2022)

Target: the molecule itself
Assay: AUC; sedimentation at 20 °C and 20,000 rpm; 25 mM Tris-HCl, 100 mM NaCl, pH 7.5; data analysed with SEDFIT

B1: K1 CPS-specific depolymerase K1 lyase of bacteriophage NTUH-K2044-K1-1 (enzyme, UniProt A0A068Q5Q5 1-651, looked up)
chain: MALIRLVAPERVFSDLASMVAYPNFQVQDKITLLGSAGGDFTFTTTASVVDNGTVFAVPGGYLLRKFVGPAYSSWFSNWTGIVTFMSAPNRHLVVDTVLQATSVLNIKSNSTLEFTDTGRILPDAAVARQVLNITGSAPSVFVPLAADAAAGSKVITVAAGALSAVKGTYLYLRSNKLCDGGPNTYGVKISQIRKVVGVSTSGGVTSIRLDKALHYNYYLSDAAEVGIPTMVENVTLVSPYINEFGYDDLNRFFTSGISANFAADLHIQDGVIIGNKRPGASDIEGRSAIKFNNCVDSTVKGTCFYNIGWYGVEVLGCSEDTEVHDIHAMDVRHAISLNWQSTADGDKWGEPIEFLGVNCEAYSTTQAGFDTHDIGKRVKFVRCVSYDSADDGFQARTNGVEYLNCRAYRAAMDGFASNTGVAFPIYRECLAYDNVRSGFNCSYGGGYVYDCEAHGSQNGVRINGGRVKGGRYTRNSSSHIFVTKDVAETAQTSLEIDGVSMRYDGTGRAVYFHGTVGIDPTLVSMSNNDMTGHGLFWALLSGYTVQPTPPRMSRNLLDDTGIRGVATLVAGEATVNARVRGNFGSVANSFKWVSEVKLTRLTFPSSAGALTVTSVAQNQDVPTPNPDLNSFVIRSSNAADVSQVAWEVYL
notes: K1 CPS-specific depolymerase (K1 lyase) encoded by orf34 of bacteriophage NTUH-K2044-K1-1, GenBank BAP15746, amino acids 1-651; Cloned into pET28a via NdeI and XhoI; This cloning would likely give an N-terminal His6 tag, but that is a surmise; also called K1 CPS depolymerase; polysaccharide depolymerase (PDP); source: E. coli BL21 (DE3), purified (nickel-chelating Sepharose, Superdex-200 gel …)
- stoichiometry N: 3
